Kd data for 1 substance are collected here from paper PMC4046987.

In the data set the test system is HfqBc (Hfq6) (Burkholderia cenocepacia J2315). The data set is described as follows: EMSA. Particulars: no MtvR; complexes seen only at 500 nM HfqBc or higher; excess yeast tRNA; 20 mM Tris-Cl pH 8.0, 1 mM DTT, 1 mM MgCl2, 10 mM KCl, 10 mM KH2PO4, excess yeast tRNA, 30 min at 25 C; native 8% PAGE with 10% glycerol. Background: In EMSA bound probe runs differently from free probe, usually more slowly.

On to hfqEc full mRNA (5'-UTR + CDS), for which the Kd (as a rule, a measure of binding affinity in units of concentration) is 11.6 µM.
